Measurements published in article PMC8775250, “Cryo-EM Structure of the Rhodobacter sphaeroides Light-Harvesting 2 Complex at 2.1 Å” (Biochemistry, 2021).
Ends that are not written are not given here.

B1: LH2 α-polypeptide of the Rhodobacter sphaeroides light-harvesting 2 (LH2) complex (natural protein, Rhodobacter sphaeroides 2.4.1, UniProt Q3J144 1-54, looked up)
chain: carboxyl-MTNGKIWLVVKPTVGVPLFLSAAVIASVVIHAAVLTTTTWLPAYYQGSAAVAAE
notes: Met1 is the N-terminus in the structure; nine copies form the inner ring; also called α-apoprotein
B2: LH2 β-polypeptide of the Rhodobacter sphaeroides light-harvesting 2 (LH2) complex (natural protein)
chain: not shown
notes: Gly51 is the C-terminus; N-terminal, transmembrane and C-terminal regions of 14, 32 and 5 residues; nine copies form the outer ring

Assays:
[1] = biological target: the molecule itself; assay: cryo-EM structure; single-particle cryo-EM of the LH2 complex purified from membranes in 20 mM HEPES pH 7.8 with 0.1% LDAO; C9 symmetry imposed; 2.1 Å
[2] = biological target: B1; assay: as above; conditions: both partners purified

binding result [2]	Binder	stoichiometry N [1]
	B1	9
binds	B2	9
